Assay results taken from article PMC9482650, “Quantitative fragmentomics allow affinity mapping of interactomes” (Nature Communications, 2022).
Numbering of substitutions follows the chain as printed.

Assays:
Assay in all cases: holdup assay
Parameters in all cases: key: below the threshold = too weak to quantify, mostly under pKd 3.1 to 4
TJP1_2, Q07157 = target: TJP1_2, Q07157
MAGI3_2, Q5TCQ9 = target: MAGI3_2, Q5TCQ9
GRIP1_7, Q9Y3R0 = target: T1, GRIP1_7, Q9Y3R0
T1 sequence (Q9Y3R0 999-1096, limits assumed, looked up): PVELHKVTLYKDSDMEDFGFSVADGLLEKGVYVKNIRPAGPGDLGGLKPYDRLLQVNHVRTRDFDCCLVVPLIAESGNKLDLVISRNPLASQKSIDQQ

SNTG2, Q9NY99 = target: T2, SNTG2, Q9NY99
T2 sequence (Q9NY99 68-166, limits assumed, looked up): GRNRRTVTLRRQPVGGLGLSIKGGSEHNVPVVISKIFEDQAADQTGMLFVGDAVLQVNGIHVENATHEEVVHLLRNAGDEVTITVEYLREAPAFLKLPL

SCRIB_1, Q14160 = target: SCRIB_1, Q14160
Chain of SCRIB_1, Q14160 (Q14160 718-814): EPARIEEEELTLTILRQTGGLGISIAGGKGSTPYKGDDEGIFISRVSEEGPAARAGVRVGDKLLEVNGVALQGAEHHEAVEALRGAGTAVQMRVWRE

ARHGEF12, Q9NZN5-2 = target: ARHGEF12, Q9NZN5-2
Chain of ARHGEF12, Q9NZN5-2 (Q9NZN5 other isoform, or with tags, fused parts or gaps): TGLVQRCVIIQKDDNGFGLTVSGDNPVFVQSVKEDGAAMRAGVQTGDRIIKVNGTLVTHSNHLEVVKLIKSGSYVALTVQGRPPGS

LIN7C, Q9NUP9 = target: T3, LIN7C, Q9NUP9
T3 sequence (Q9NUP9 88-185, limits assumed, looked up): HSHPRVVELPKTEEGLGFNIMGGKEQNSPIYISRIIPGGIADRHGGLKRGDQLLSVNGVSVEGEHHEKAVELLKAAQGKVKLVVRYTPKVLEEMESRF

NHERF2_2, Q15599 = target: NHERF2_2, Q15599
Chain of NHERF2_2, Q15599 (Q15599 142-238): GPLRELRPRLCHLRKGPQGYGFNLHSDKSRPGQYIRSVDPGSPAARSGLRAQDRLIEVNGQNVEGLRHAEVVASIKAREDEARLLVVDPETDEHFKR

SCRIB_3, Q14160 = target: SCRIB_3, Q14160
Chain of SCRIB_3, Q14160 (Q14160 999-1103): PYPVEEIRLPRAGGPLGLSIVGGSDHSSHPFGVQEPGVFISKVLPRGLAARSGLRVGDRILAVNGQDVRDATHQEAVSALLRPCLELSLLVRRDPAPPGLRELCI

GORASP1, Q9BQQ3 = target: GORASP1, Q9BQQ3
Chain of GORASP1, Q9BQQ3 (Q9BQQ3 1-208): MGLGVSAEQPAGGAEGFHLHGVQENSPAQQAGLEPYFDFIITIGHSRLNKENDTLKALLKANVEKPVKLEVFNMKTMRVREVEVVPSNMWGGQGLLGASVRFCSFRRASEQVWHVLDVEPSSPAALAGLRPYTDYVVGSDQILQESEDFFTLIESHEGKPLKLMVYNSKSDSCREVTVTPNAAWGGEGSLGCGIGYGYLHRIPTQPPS

DLG3_3, Q92796 = target: T4, DLG3_3, Q92796
T4 sequence (Q92796 374-475, limits assumed, looked up): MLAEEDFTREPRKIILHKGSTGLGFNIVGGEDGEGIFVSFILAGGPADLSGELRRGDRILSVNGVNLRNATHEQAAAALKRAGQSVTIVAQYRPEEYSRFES

PTPN3, P26045 = target: PTPN3, P26045
Chain of PTPN3, P26045 (P26045 505-587): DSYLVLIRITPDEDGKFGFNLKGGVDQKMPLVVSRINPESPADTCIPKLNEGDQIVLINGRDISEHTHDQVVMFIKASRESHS

MAST2, Q6P0Q8 = target: MAST2, Q6P0Q8
Chain of MAST2, Q6P0Q8 (Q6P0Q8 1099-1202): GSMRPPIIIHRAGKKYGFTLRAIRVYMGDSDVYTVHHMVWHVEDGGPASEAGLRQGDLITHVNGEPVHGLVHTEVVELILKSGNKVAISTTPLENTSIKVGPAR

SNX27, Q96L92 = target: SNX27, Q96L92
CASK, O14936 = target: CASK, O14936
Chain of CASK, O14936 (O14936 487-570): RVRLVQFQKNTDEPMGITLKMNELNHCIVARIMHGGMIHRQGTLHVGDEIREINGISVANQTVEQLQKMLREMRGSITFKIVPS

LNX1_1, Q8TBB1 = target: LNX1_1, Q8TBB1
Chain of LNX1_1, Q8TBB1 (Q8TBB1 261-371): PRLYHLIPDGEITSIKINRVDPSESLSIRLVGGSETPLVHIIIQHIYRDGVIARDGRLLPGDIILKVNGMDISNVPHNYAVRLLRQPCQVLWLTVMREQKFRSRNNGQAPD

SCRIB_2, Q14160 = target: SCRIB_2, Q14160
Chain of SCRIB_2, Q14160 (Q14160 857-960): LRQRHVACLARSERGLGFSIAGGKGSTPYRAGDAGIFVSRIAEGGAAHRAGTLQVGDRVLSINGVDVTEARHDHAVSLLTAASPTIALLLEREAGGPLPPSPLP

LIN7B, Q9HAP6 = target: T5, LIN7B, Q9HAP6
T5 sequence (Q9HAP6 88-185, limits assumed, looked up): T3 sequence (Q9NUP9 88-185, limits assumed, looked up) with S2A, E13D, I35V, I40V, H65Q, K79S, K89R, S96A

MAGI2_5, Q86UL8 = target: MAGI2_5, Q86UL8
Chain of MAGI2_5, Q86UL8 (Q86UL8 915-1017): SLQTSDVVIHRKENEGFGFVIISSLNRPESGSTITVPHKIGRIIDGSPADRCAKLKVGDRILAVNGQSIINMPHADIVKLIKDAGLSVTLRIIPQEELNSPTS

NHERF4_1, Q86UT5-2 = target: NHERF4_1, Q86UT5-2
Chain of NHERF4_1, Q86UT5-2 (Q86UT5 other isoform, or with tags, fused parts or gaps): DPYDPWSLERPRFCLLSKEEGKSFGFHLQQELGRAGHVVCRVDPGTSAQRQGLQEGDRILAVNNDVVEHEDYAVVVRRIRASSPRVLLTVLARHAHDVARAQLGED

PDLIM1, O00151 = target: PDLIM1, O00151
Chain of PDLIM1, O00151 (O00151 1-87): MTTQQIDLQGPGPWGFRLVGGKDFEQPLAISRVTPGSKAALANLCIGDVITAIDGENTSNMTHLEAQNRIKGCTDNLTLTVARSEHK

MAGI2_3, Q86UL8 = target: MAGI2_3, Q86UL8
Chain of MAGI2_3, Q86UL8 (Q86UL8 600-682): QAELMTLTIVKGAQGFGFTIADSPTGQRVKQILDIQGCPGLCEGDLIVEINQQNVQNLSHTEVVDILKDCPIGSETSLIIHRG

Inadl_1, Q8NI35 = target: Inadl_1, Q8NI35
Chain of Inadl_1, Q8NI35 (Q8NI35 113-229): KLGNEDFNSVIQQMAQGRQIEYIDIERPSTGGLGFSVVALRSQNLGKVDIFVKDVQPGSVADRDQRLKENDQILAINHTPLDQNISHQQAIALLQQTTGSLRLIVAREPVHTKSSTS

APBA1_1, Q02410 = target: T6, APBA1_1, Q02410
T6 sequence (Q02410 651-752, limits assumed, looked up): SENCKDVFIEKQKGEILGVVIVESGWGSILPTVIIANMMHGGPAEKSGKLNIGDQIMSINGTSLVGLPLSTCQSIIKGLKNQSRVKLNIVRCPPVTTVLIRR

PARD3_3, Q8TEW0 = target: PARD3_3, Q8TEW0
Chain of PARD3_3, Q8TEW0 (Q8TEW0 582-685): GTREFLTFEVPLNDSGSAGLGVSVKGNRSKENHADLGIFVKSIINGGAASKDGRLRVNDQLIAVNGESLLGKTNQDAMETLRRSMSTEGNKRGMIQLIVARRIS

Inadl_8, Q8NI35 = target: Inadl_8, Q8NI35
Chain of Inadl_8, Q8NI35 (Q8NI35 1425-1530): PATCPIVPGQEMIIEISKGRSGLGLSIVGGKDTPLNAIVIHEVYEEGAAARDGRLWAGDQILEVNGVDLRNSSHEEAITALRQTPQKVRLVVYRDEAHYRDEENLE

GRIP1_2, Q9Y3R0 = target: T7, GRIP1_2, Q9Y3R0
T7 sequence (Q9Y3R0 145-248, limits assumed, looked up): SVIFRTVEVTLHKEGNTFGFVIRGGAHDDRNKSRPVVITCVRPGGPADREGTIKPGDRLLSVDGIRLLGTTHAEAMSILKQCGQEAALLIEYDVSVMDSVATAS

TJP3_3, O95049 = target: T8, TJP3_3, O95049
T8 sequence (O95049 375-456, limits assumed, looked up): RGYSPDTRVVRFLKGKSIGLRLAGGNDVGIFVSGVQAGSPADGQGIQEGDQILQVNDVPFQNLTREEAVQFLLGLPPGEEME

HTRA2, O43464 = target: HTRA2, O43464
Chain of HTRA2, O43464 (O43464 355-458): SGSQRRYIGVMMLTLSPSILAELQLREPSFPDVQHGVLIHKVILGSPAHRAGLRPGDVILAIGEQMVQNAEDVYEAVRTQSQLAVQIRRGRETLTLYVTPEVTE

AHNAK1, Q09666 = target: AHNAK1, Q09666
Chain of AHNAK1, Q09666 (Q09666 4-100): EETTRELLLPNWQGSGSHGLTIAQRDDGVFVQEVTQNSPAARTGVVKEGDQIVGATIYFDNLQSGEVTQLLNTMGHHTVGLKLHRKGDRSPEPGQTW

MAST1, Q9Y2H9 = target: MAST1, Q9Y2H9
Chain of MAST1, Q9Y2H9 (Q9Y2H9 962-1065): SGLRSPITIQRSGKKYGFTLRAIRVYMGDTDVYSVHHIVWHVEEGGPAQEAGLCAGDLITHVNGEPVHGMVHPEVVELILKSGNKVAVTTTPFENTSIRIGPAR

[1] = plain residues with an end cap or a label only (N-terminal biotin on a linker: ahx)
[2] = plain residues with an end cap or a label only (N-terminal biotin on a linker: ttds)

Chain of TJP1_2, Q07157 (Q07157 181-274): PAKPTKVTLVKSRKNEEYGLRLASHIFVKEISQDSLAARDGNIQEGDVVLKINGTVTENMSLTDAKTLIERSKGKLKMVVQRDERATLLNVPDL
Chain of MAGI3_2, Q5TCQ9 (Q5TCQ9 398-503): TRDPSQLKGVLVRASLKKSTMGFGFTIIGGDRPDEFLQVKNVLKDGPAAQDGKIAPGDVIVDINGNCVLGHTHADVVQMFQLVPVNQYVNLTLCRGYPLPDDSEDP

KTSAHHATFV [RGS12, O14924] was tested, and the pKd (TJP1_2, Q07157; [1]) was “below the threshold”, the pKd (MAGI3_2, Q5TCQ9; [1]) was 4.72 and the pKd (GRIP1_7, Q9Y3R0; [1]) was “below the threshold”. For the same binder, the pKd (SNTG2, Q9NY99; [1]) was “below the threshold”, the pKd (SCRIB_1, Q14160; [1]) was 3.8 and the pKd (ARHGEF12, Q9NZN5-2; [1]) was 3.82. For the same binder, the pKd (LIN7C, Q9NUP9; [1]) was “below the threshold”, the pKd (NHERF2_2, Q15599; [1]) was “below the threshold” and the pKd (SCRIB_3, Q14160; [1]) was 4.18. The pKd (GORASP1, Q9BQQ3; [1]) was 3.86, the pKd (DLG3_3, Q92796; [1]) was “below the threshold” and the pKd (PTPN3, P26045; [1]) was 3.92. For the same binder, the pKd (MAST2, Q6P0Q8; [1]) was 4.33, the pKd (SNX27, Q96L92; [1]) was 4.05 and the pKd (CASK, O14936; [1]) was “below the threshold”. The pKd (LNX1_1, Q8TBB1; [1]) was 4.21, the pKd (SCRIB_2, Q14160; [1]) was 3.47 and the pKd (LIN7B, Q9HAP6; [1]) was “below the threshold”. For the same binder, the pKd (MAGI2_5, Q86UL8; [1]) was 4.37, the pKd (NHERF4_1, Q86UT5-2; [1]) was “below the threshold” and the pKd (PDLIM1, O00151; [1]) was “below the threshold”. For the same binder, the pKd (MAGI2_3, Q86UL8; [1]) was “below the threshold”, the pKd (Inadl_1, Q8NI35; [1]) was “below the threshold” and the pKd (APBA1_1, Q02410; [1]) was “below the threshold”. The pKd (PARD3_3, Q8TEW0; [1]) was “below the threshold”, the pKd (Inadl_8, Q8NI35; [1]) was 4.22 and the pKd (GRIP1_2, Q9Y3R0; [1]) was “below the threshold”. The pKd (TJP3_3, O95049; [1]) was “below the threshold”, the pKd (HTRA2, O43464; [1]) was 3.93 and the pKd (AHNAK1, Q09666; [1]) was “below the threshold”. For the same binder, the pKd (MAST1, Q9Y2H9; [1]) was 3.65.

With SSSNSEDTEM [NHERF3, Q5T2W1] the pKd (TJP1_2, Q07157; [1]) was “below the threshold”, the pKd (MAGI3_2, Q5TCQ9; [1]) was “below the threshold” and the pKd (GRIP1_7, Q9Y3R0; [1]) was “below the threshold”. For the same binder, the pKd (SNTG2, Q9NY99; [1]) was “below the threshold”, the pKd (SCRIB_1, Q14160; [1]) was “below the threshold” and the pKd (ARHGEF12, Q9NZN5-2; [1]) was “below the threshold”. The pKd (LIN7C, Q9NUP9; [1]) was “below the threshold”, the pKd (NHERF2_2, Q15599; [1]) was 4.25 and the pKd (SCRIB_3, Q14160; [1]) was “below the threshold”. For the same binder, the pKd (GORASP1, Q9BQQ3; [1]) was “below the threshold”, the pKd (DLG3_3, Q92796; [1]) was “below the threshold” and the pKd (PTPN3, P26045; [1]) was 3.64. The pKd (MAST2, Q6P0Q8; [1]) was 4.5, the pKd (SNX27, Q96L92; [1]) was 4.16 and the pKd (CASK, O14936; [1]) was “below the threshold”. The pKd (LNX1_1, Q8TBB1; [1]) was “below the threshold”, the pKd (SCRIB_2, Q14160; [1]) was “below the threshold” and the pKd (LIN7B, Q9HAP6; [1]) was “below the threshold”. The pKd (MAGI2_5, Q86UL8; [1]) was “below the threshold”, the pKd (NHERF4_1, Q86UT5-2; [1]) was “below the threshold” and the pKd (PDLIM1, O00151; [1]) was “below the threshold”. The pKd (MAGI2_3, Q86UL8; [1]) was “below the threshold”, the pKd (Inadl_1, Q8NI35; [1]) was “below the threshold” and the pKd (APBA1_1, Q02410; [1]) was “below the threshold”. For the same binder, the pKd (PARD3_3, Q8TEW0; [1]) was “below the threshold”, the pKd (Inadl_8, Q8NI35; [1]) was “below the threshold” and the pKd (GRIP1_2, Q9Y3R0; [1]) was “below the threshold”. For the same binder, the pKd (TJP3_3, O95049; [1]) was “below the threshold”, the pKd (HTRA2, O43464; [1]) was “below the threshold” and the pKd (AHNAK1, Q09666; [1]) was “below the threshold”. It also gave a pKd (MAST1, Q9Y2H9; [1]) of 3.94.

With SPLHSLETSL [ATP2B1, P20020] the pKd (TJP1_2, Q07157; [2]) was “below the threshold”, the pKd (MAGI3_2, Q5TCQ9; [2]) was 3.69 and the pKd (GRIP1_7, Q9Y3R0; [2]) was 3.58. The pKd (SNTG2, Q9NY99; [2]) was 4.66, the pKd (SCRIB_1, Q14160; [2]) was 5.36 and the pKd (ARHGEF12, Q9NZN5-2; [2]) was 4.88. The pKd (LIN7C, Q9NUP9; [2]) was 4.45, the pKd (NHERF2_2, Q15599; [2]) was 4.87 and the pKd (SCRIB_3, Q14160; [2]) was 5.54. The pKd (GORASP1, Q9BQQ3; [2]) was 3.61, the pKd (DLG3_3, Q92796; [2]) was 3.97 and the pKd (PTPN3, P26045; [2]) was 4.95. The pKd (MAST2, Q6P0Q8; [2]) was 5.88, the pKd (SNX27, Q96L92; [2]) was 5.48 and the pKd (CASK, O14936; [2]) was “below the threshold”. For the same binder, the pKd (LNX1_1, Q8TBB1; [2]) was “below the threshold”, the pKd (SCRIB_2, Q14160; [2]) was 4.27 and the pKd (LIN7B, Q9HAP6; [2]) was 4.22. The pKd (MAGI2_5, Q86UL8; [2]) was 4.31, the pKd (NHERF4_1, Q86UT5-2; [2]) was 3.91 and the pKd (PDLIM1, O00151; [2]) was 3.71. The pKd (MAGI2_3, Q86UL8; [2]) was 3.5, the pKd (Inadl_1, Q8NI35; [2]) was 3.69 and the pKd (APBA1_1, Q02410; [2]) was “below the threshold”. The pKd (PARD3_3, Q8TEW0; [2]) was 3.82, the pKd (Inadl_8, Q8NI35; [2]) was “below the threshold” and the pKd (GRIP1_2, Q9Y3R0; [2]) was “below the threshold”. For the same binder, the pKd (TJP3_3, O95049; [2]) was “below the threshold”, the pKd (HTRA2, O43464; [2]) was “below the threshold” and the pKd (AHNAK1, Q09666; [2]) was “below the threshold”. For the same binder, the pKd (MAST1, Q9Y2H9; [2]) was 4.92.
